Experimental data: patent US20240392014A1 (OREGON HEALTH AND SCIENCE UNIVERSITY, published 2024)

Molecular target: T1, CCR5 on CD4+ T cells of a Mauritian cynomolgus macaque (Mauritian cynomolgus macaque, UniProt P61814 1-352)
T1 construct: also called cynomolgus macaque CCR5
Test: in vivo CCR5 receptor occupancy on CD4+ T cells after AAV9-huLeron, flow cytometry; also near full CCR5 RO in mesenteric lymph nodes and spleen
Description: The ability of the leronlimab-delivering AAV to transduce myocytes, trigger them to produce leronlimab, and subsequently contain CCR5-tropic retroviral replication was tested. An AAV9 encoding human Fc leronlimab (AAV9-huLeron) was administered at 2×10¹² AAV genomes/kg of to a Mauritian cynomolgus macaque (MCM) chronically infected with the CCR5-tropic virus SHIVSF162P3. […] Leronlimab was detectable in plasma at week 3 after administration of leronlimab-AAV following achievement of full CCR5 receptor occupancy in peripheral blood (FIGS. 2A and 2C). Leronlimab persisted in the plasma for one year post leronlimab-AAV administration (FIG. 2A) without appearance of any ADA (FIG. 2B). Following leronlimab-AAV administration and full CCR5 RO on peripheral blood CD4+ T cells, plasma viral loads fell to undetectable levels. Plasma viremia “blips” that coincided with transient dips in CCR5 RO and plasma leronlimab levels were observed. Finally, CD4+ T cells from mesenteric lymph nodes (LN) and spleen maintained near full CCR5 RO (FIG. 2D). Cell-associated SHIV DNA (FIG. 2E) and RNA (FIG. 2F) decreased in blood and spleen, with minimal decreases in mesenteric LN.

B1: human Fc leronlimab (expressed in vivo from AAV9-huLeron) (antibody, V domains shown)
VH: EVQLVESGGGLVKPGGSLRLSCAASGYTFSNYWIGWVRQAPGKGLEWIGDIYPGGNYIRNNEKFKDKTTLSADTSKNTAYLQMNSLKTEDTAVYYCGSSFGSNYVFAWFTYWGQGTLVTVSS
VL: DIVMTQSPLSLPVTPGEPASISCRSSQRLLSSYGHTYLHWYLQKPGQSPQLLIYEVSNRFSGVPDRFSGSGSGTDFTLKISRVEAEDVGVYYCSQSTHVPLTFGQGTKVEIK
notes: also called PRO 140; PRO140
  binding result: binds
